From article PMC9603813, “Genome-Wide Analysis Reveals that PhoP Regulates Pathogenicity in Riemerella anatipestifer” come the findings set out here.

Usually Kd stands for the concentration at which binding is half-saturated.

Holding throughout (settings): protein: recombinant; tags: His6 (pET-28a); chain copies: 2; label: 5' biotin on strand 1; blunt
The target of series [1] is T1, His6-PhoP (Riemerella anatipestifer RA-YM, UniProt E4TAE7 2-228).
T1 sequence: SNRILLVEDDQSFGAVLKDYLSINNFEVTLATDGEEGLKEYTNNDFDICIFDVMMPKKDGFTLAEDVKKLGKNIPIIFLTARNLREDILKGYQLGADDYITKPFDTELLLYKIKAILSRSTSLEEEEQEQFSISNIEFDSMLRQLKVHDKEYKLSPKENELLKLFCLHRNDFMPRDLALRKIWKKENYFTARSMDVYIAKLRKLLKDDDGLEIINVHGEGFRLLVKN
Description: EMSA. A general note: Mobility shift assays separate free from complexed probe on a gel.

For series [2], the target named is T1, His6-PhoP. The series is described as follows: EMSA; phosphorylated by acetyl phosphate.
Series [3] addresses T1, His6-PhoP. Description: EMSA; unphosphorylated.
Series [4] addresses T2, His6-PhoP-DBD (Riemerella anatipestifer RA-YM, UniProt E4TAE7 130-228).
T2 sequence: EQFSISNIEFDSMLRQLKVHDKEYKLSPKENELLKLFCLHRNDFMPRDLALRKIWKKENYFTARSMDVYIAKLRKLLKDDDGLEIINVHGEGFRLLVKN
The series is described as follows: EMSA.

B1: KYF39_06865 motif probe (dsDNA)
DNA 1: CGTTAAAAAATAAAGCGAGGTTTTGTTGTTTTAAA
DNA 2: TTTAAAACAACAAAACCTCGCTTTATTTTTTAACG
Turning to B1, the binding result in series [1] is reported as “binds”.

B2: KYF39_00915 (transposase) probe (dsDNA)
DNA 1: TGAAAATTTCAAATTTAACTAAAGCTTATAGCAAT
DNA 2: ATTGCTATAAGCTTTAGTTAAATTTGAAATTTTCA
For B2, the Kd came out at 33.9 nM in series [2] and 29.8 nM in series [3].

B3: phoPR motif probe (dsDNA)
DNA 1: AAACTCATAATAATCTGTTAAAAAACTCGTTTTTA
DNA 2: TAAAAACGAGTTTTTTAACAGATTATTATGAGTTT
Turning to B3, the results for the binding result in series [4] and in series [1] were “no binding” and “binds”, respectively.

B4: KYF39_00905 (transporter) probe (dsDNA)
DNA 1: CAAAAAATATTTCATTAACAGAATAGACAATCATA
DNA 2: TATGATTGTCTATTCTGTTAATGAAATATTTTTTG
Turning to B4, the figures for the Kd in series [2] and in series [3] were 39.5 nM and 39.2 nM, respectively.

B5: KYF39_07405 (OMPbB) probe (dsDNA)
DNA 1: ATAAAGTGGCAAATTTAACTTTAATAATTAAAAGA
DNA 2: TCTTTTAATTATTAAAGTTAAATTTGCCACTTTAT
Take B5: in series [1], the binding result is reported as “binds”.

B6: dedA motif probe (dsDNA)
DNA 1: ATCTATAAAGAGATTTAACAAATTTTATAATTCTA
DNA 2: TAGAATTATAAAATTTGTTAAATCTCTTTATAGAT
B6: the binding result in series [1] is “binds”.
